What was measured:
[1] = tested on: normal human foreskin fibroblasts (FSF); assay: Cell binding assay by flow cytometry, human foreskin fibroblasts (FSF); assay type: cell-based
Procedure: (§1) FIG. 4D: Binding of recombinant HCV E2 and E2-LDL to human fibroblasts (FSF) and human fibroblasts negative for the human LDLr (Null). Cells were detached non-enzymatically and incubated with E2 or E2/LDL proteins. Cell-bound E2 was detected with monoclonal anti-E2 antibody 108, followed by incubation with a secondary fluorescent labeled anti-human IgG. Cells were analyzed by flow cytometry.
(§2) Recombinant HCV E2 protein or HIV-gp120-FITC, human, rabbit or bovine lipoproteins, HCV or mock virus preparations were added to cells for 60 min at 4° C. Cells were washed and incubated with ligand-specific antibody for 60 min at 4° C. Antibody binding was detected using goat anti-human IgG-Oregon green (10 μg/ml) for 45 min at 4° C. Cells were washed two times, fixed in PBS containing 4% paraformaldehyde, and analyzed by flow cytometry (FACScan, Becton Dickinson).
(§3) The increased level of binding of both proteins to MOLT-4 cells may be due to an association between LDL and HCV E2 that enables the resulting complex to bind to either the LDLr or to CD81. To evaluate this interaction further, mouse 3T3 cells expressing only murine CD81 or cells expressing both murine and human CD81 were studied. […] Therefore, the enhanced E2 binding following incubation with LDL appears to require human LDLr expression on the cell surface. […]

human LDL = assay: ELISA for E2-LDL interaction (anti-LDL McAb capture, anti-E2 McAb detection); assay type: binding
Procedure: FIG. 2: Interaction of E2 with LDL. Increasing amounts of LDL were incubated with purified E2 protein at 4° C. and allowed to bind to mouse monoclonal anti-apolipoprotein B antibody coated in ELISA plates. LDL bound E2 protein was detected with a monoclonal anti-E2 antibody, followed by an alkaline-phosphatase labeled secondary antibody and PNPP substrate. The subtracted blank consisted of E2 protein in the absence of LDL.
Microtiter plates were prepared by coating wells with 100 μl anti-LDL McAb (4 μg/ml in 100 mM bicarbonate buffer, pH 9.6) overnight (ON) at RT (Wuenschmann et al., 2000). […] Plates were washed twice with TBS followed by the addition of 100 μl of E2 protein or E2 protein with LDL in PBS. After ON incubation of samples at RT, plates were washed three times with TBS followed by the addition of anti HCV E2 McAb 108 (7.5 μg/ml). Plates were incubated for 1.5 h and washed three times with TBS; then 100 μl of anti-human IgG-alkaline phosphatase conjugate (Promega, Madison, Wis.) diluted 1/5,000 in BLOTTO was added for 1 h at RT washed four times with TBS, and incubated for 30 min with a 1-mg/ml solution of p-nitrophenyl phosphate (PNPP). Absorbance was measured at 405 nm with a multiwell plate reader. […]

Huh-7 cells = assay: Cell binding assay by flow cytometry, Huh-7 cells; assay type: cell-based, human; conditions: 4° C.
Procedure: FIG. 3A; FIG. 3B; and FIG. 3C: Incubation of LDL enhanced binding of HCV E2. […] Cell-bound E2 was detected using a monoclonal antiE2 antibody (FIG. 3A and FIG. 3C) or a polyclonal anti-E2 serum (FIG. 3B).
(§4) MOLT-4 cells, a CD4^+ T lymphoblastoid cell line, and Huh7 cells of hepatocyte origin were obtained from ATCC (Manassas, Va.). Human foreskin fibroblasts (FSF) and LDLr-deficient foreskin fibroblasts (Null) from a patient with familial hypercholesterolemia (Hobbs et al., 1987) were kindly provided by Dr. Jheem Medh.
as §2

[2] = tested on: 3T3 cells expressing human CD81; assay: Cell binding assay by flow cytometry, mouse 3T3 cells with or without human CD81; assay type: cell-based
Procedure: FIG. 4B: Binding of recombinant HCV E2 to mouse 3T3 cells. Cells were detached non-enzymatically and incubated with recombinant E2 protein. Cell-bound E2 was detected with monoclonal anti-E2 antibody 108, followed by incubation with a secondary fluorescent labeled anti-human IgG. Cells were analyzed by flow cytometry.
FIG. 4C: Binding of HCV E2 and HCV-E2/LDL to mouse 3T3-human CD81 cells. Cells were detached non-enzymatically and incubated with E2 alone or E2/LDL. Cell-bound E2 was detected with monoclonal anti-E2 antibody 108, followed by incubation with a secondary fluorescent labeled anti-human IgG. Cells were analyzed by flow cytometry.
as §2
The increased level of binding of both proteins to MOLT-4 cells may be due to an association between LDL and HCV E2 that enables the resulting complex to bind to either the LDLr or to CD81. […]

[3] = tested on: human fibroblasts that do not express the human LDLr (Null); assay: Cell binding assay by flow cytometry, LDLr-deficient fibroblasts (Null); assay type: cell-based
Procedure: as §1, §2, §3

MOLT-4 cells = assay: Cell binding assay by flow cytometry, MOLT-4 cells; assay type: cell-based, human
Procedure: as §4, §2
HCV-E2 was incubated with increasing concentrations of human LDL for one hour at 4° C. prior to the addition of proteins to MOLT-4 cells. Following one hour at 4° C., cells were washed and HCV E2 binding was detected by flow cytometry. […] The increase in E2 binding in the presence of LDL was seen when either the anti-HCV McAb or anti-HCV polyclonal anti-HCV were used for E2 detection (FIG. 3B). […] To determine if HCV E2 influenced binding of human LDL to MOLT-4 cells, HCV-E2 and fluorescently labeled LDL were incubated for one hour at 4° C. and added to MOLT-4 cells for an additional hour. Cells were washed and analyzed for labeled-LDL binding (FIG. 3E and FIG. 3F).

B1: HCV E2: Purified recombinant HCV envelope glycoprotein E2 (Ala 384-Lys 715) expressed in CHO cells, obtained from Austral Biologicals (protein)
chain: ETHVTGGSAGHTVSGFVSLLAPGAKQNVQLINTNGSWHLNSTALNCNDSLNTGWLAGLFYHHKFNSSGCPERLASCRPLTDFDQGWGPISYANGSGPDQRPYCWHYPPKPCGIVPAKSVCGPVYCFTPSPVVVGTTDRSGAPTYSWGENDTDVFVLNNTRPPLGNWFGCTWMNSTGFTKVCGAPPCVIGGAGNNTLHCPTDCFRKHPDATYSRCGSGPWITPRCLVDYPYRLWHYPCTINYTIFKIRMYVGGVEHRLEAACNWTRGERCDLEDRDRSELSPLLLTTTQWQVLPCSFTTLPALSTGLIHLHQNIVDVQYLYGVGSSIASWAIK
E2 binding to FSF fibroblasts ([1]; E2 alone): bound
E2 binding to LDLr-expressing fibroblasts when preincubated with LDL ([1]; preincubation with LDL): increased binding
HCV E2 detected in ELISA with murine McAb against human LDL as capture antibody (human LDL; E2 alone vs E2 with LDL): only detected when complexed with LDL
Extent of E2 captured in relation to LDL concentration (human LDL; increasing amounts of LDL): directly correlated to the LDL concentration used
Binding of E2 protein to Huh-7 cells after preincubation with human LDL (Huh-7 cells): increased binding of E2 protein
E2 binding to 3T3 cells ([2]; 3T3 cells expressing human CD81 vs control 3T3 cells): bound only to 3T3 cells expressing human CD81
Amount of cell bound HCV E2 on 3T3-human CD81 cells after preincubation with LDL ([2]; preincubation with LDL): did not increase the amount of cell bound HCV E2
E2 binding to Null fibroblasts ([3]; E2 alone): bound
Binding of E2-LDL complexes to Null cells compared with E2 alone ([3]; preincubation with LDL): equally to E2 alone
E2 binding to MOLT-4 cells (MOLT-4 cells; E2 alone, 4° C.): bound to MOLT-4 cells
Amount of labeled LDL bound to MOLT-4 cells after preincubation of LDL with HCV-E2 (MOLT-4 cells; LDL up to concentrations of 2.5 μg/ml, 4° C.): the amount of LDL bound increased
LDL concentration at which the increase in E2 binding was saturable (MOLT-4 cells; MOLT-4 cells, 4° C.): > 2.5 µg/mL
HCV E2 binding to MOLT-4 cells stripped of lipoproteins by dextran sulfate (MOLT-4 cells; cell bound bovine lipoproteins removed with dextran sulfate): decreased
Amount of E2 bound to MOLT-4 cells after incubation with lipoproteins (MOLT-4 cells; human VLDL, LDL and HDL, bovine lipoproteins): increased
Amount of cell-bound E2 on MOLT-4 cells after preincubation with apoprotein B (MOLT-4 cells; preincubation with apoprotein B (apoB100)): did not increase the amount of cell-bound E2
Amount of E2 protein bound to MOLT-4 cells after addition of LDL (MOLT-4 cells; preincubation with human LDL one hour at 4° C.): increased the amount of E2 protein bound

Source: patent publication US20040101829A1, “Protein that interacts with lipids and methods for treating hyperlipidemia” (The University of Iowa Research Foundation, priority 2002, published 2004)
